Assay [1] has as its target KIR on patient NK cells (KIR2D receptors; KIR2DL1 and KIR2DL2/3). Nature of the assay: receptor occupancy on patient NK cells by flow cytometry after a single i.v. dose of 0.003 mg/kg (AML dose-escalation trial). On the technique in general: A flow cytometer gives signals particle by particle.
The target is the same in assay [2]. In words: receptor occupancy on patient NK cells by flow cytometry after a single i.v. dose of 0.0003 mg/kg (AML dose-escalation trial).

On to anti-KIR antibody 1-7F9, for which the KIR occupancy was determined as 90% in assay [1] and 50% in assay [2].

The record behind these values is patent US20130251711A1.
